Reference: patent publication US20250361268A1, “NOVEL ANTI-INFLAMMATORY PEPTIDE AND USE THEREOF” (NOVACELL TECHNOLOGY INC., priority 2022, published 2025)

Assays:
[1] = target: T1, formyl peptide receptor 2 (FPR2) (UniProt P25090 1-351, limits assumed); test: cell-based or functional assay
T1 sequence (looked up): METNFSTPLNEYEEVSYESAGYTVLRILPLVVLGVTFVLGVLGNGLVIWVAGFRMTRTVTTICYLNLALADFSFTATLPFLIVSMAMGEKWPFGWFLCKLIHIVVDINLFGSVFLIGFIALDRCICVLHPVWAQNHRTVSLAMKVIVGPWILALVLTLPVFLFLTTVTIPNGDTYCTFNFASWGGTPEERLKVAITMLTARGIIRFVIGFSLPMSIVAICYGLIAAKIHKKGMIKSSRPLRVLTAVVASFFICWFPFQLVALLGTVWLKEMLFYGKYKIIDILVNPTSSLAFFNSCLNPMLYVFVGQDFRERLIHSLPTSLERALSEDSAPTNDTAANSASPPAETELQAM

FPR1 = target: T2, FPR1 (UniProt P21462 1-350, limits assumed); test: cell-based or functional assay
T2 sequence (looked up): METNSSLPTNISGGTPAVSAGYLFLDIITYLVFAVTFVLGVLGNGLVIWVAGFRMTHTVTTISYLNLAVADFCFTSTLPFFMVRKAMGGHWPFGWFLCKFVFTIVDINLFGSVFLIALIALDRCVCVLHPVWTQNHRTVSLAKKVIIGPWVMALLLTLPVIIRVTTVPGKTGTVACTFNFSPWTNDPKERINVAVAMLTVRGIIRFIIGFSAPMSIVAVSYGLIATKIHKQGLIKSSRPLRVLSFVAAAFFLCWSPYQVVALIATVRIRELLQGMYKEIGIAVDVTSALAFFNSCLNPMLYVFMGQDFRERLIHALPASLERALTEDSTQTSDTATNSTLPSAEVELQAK

B1: peptide of SEQ ID NO 3 (peptide)
peptide: WRYKVM
HELM: PEPTIDE1{W.R.Y.K.V.[dM].[am]}$$$$V2.0; N-terminus assumed
SMILES: CSCC[C@@H](NC(=O)[C@@H](NC(=O)[C@H](CCCCN)NC(=O)[C@H](Cc1ccc(O)cc1)NC(=O)[C@H](CCCNC(=N)N)NC(=O)[C@@H](N)Cc1c[nH]c2ccccc12)C(C)C)C(N)=O
EC50 for [Ca2+] [1]: < 0.01 µM
EC50 for [Ca2+] (FPR1): > 10 µM

B2: peptide of SEQ ID NO 36 (peptide)
peptide: KWKYKYM
HELM: PEPTIDE1{[ac].K.W.K.Y.K.Y.[dM].[am]}$$$$V2.0
SMILES: CSCC[C@@H](NC(=O)[C@H](Cc1ccc(O)cc1)NC(=O)[C@H](CCCCN)NC(=O)[C@H](Cc1ccc(O)cc1)NC(=O)[C@H](CCCCN)NC(=O)[C@H](Cc1c[nH]c2ccccc12)NC(=O)[C@H](CCCCN)NC(C)=O)C(N)=O
EC50 for [Ca2+] [1]: < 0.01 µM
EC50 for [Ca2+] (FPR1): > 10 µM

B3: peptide of SEQ ID NO 38 (peptide)
peptide: RMRYKYM
HELM: PEPTIDE1{R.M.R.Y.K.Y.[dM].[am]}$$$$V2.0; N-terminus assumed
SMILES: CSCC[C@H](NC(=O)[C@@H](N)CCCNC(=N)N)C(=O)N[C@@H](CCCNC(=N)N)C(=O)N[C@@H](Cc1ccc(O)cc1)C(=O)N[C@@H](CCCCN)C(=O)N[C@@H](Cc1ccc(O)cc1)C(=O)N[C@H](CCSC)C(N)=O
EC50 for [Ca2+] [1]: < 0.01 µM
EC50 for [Ca2+] (FPR1): > 10 µM

B4: peptide of SEQ ID NO 35 (peptide)
peptide: WRYKYM
HELM: PEPTIDE1{W.R.Y.K.Y.[dM].[am]}$$$$V2.0; N-terminus assumed
SMILES: CSCC[C@@H](NC(=O)[C@H](Cc1ccc(O)cc1)NC(=O)[C@H](CCCCN)NC(=O)[C@H](Cc1ccc(O)cc1)NC(=O)[C@H](CCCNC(=N)N)NC(=O)[C@@H](N)Cc1c[nH]c2ccccc12)C(N)=O
EC50 for [Ca2+] [1]: < 0.01 µM
EC50 for [Ca2+] (FPR1): > 10 µM

B5: peptide of SEQ ID NO 37 (peptide)
peptide: HWKYKYM
HELM: PEPTIDE1{[CCCC(=O)[*:2]].H.W.K.Y.K.Y.[dM].[am]}$$$$V2.0
SMILES: CCCC(=O)N[C@@H](Cc1c[nH]cn1)C(=O)N[C@@H](Cc1c[nH]c2ccccc12)C(=O)N[C@@H](CCCCN)C(=O)N[C@@H](Cc1ccc(O)cc1)C(=O)N[C@@H](CCCCN)C(=O)N[C@@H](Cc1ccc(O)cc1)C(=O)N[C@H](CCSC)C(N)=O
EC50 for [Ca2+] [1]: < 0.01 µM
EC50 for [Ca2+] (FPR1): > 10 µM

B6: peptide of SEQ ID NO 30 (peptide)
peptide: RMRYRVM
HELM: PEPTIDE1{R.M.R.Y.R.V.[dM].[am]}$$$$V2.0; N-terminus assumed
SMILES: CSCC[C@H](NC(=O)[C@@H](N)CCCNC(=N)N)C(=O)N[C@@H](CCCNC(=N)N)C(=O)N[C@@H](Cc1ccc(O)cc1)C(=O)N[C@@H](CCCNC(=N)N)C(=O)N[C@H](C(=O)N[C@H](CCSC)C(N)=O)C(C)C
EC50 for [Ca2+] [1]: < 0.01 µM
EC50 for [Ca2+] (FPR1): > 10 µM

B7: peptide of SEQ ID NO 33 (peptide)
peptide: RWRYKYM
HELM: PEPTIDE1{[ac].R.W.R.Y.K.Y.[dM].[am]}$$$$V2.0
SMILES: CSCC[C@@H](NC(=O)[C@H](Cc1ccc(O)cc1)NC(=O)[C@H](CCCCN)NC(=O)[C@H](Cc1ccc(O)cc1)NC(=O)[C@H](CCCNC(=N)N)NC(=O)[C@H](Cc1c[nH]c2ccccc12)NC(=O)[C@H](CCCNC(=N)N)NC(C)=O)C(N)=O
EC50 for [Ca2+] [1]: < 0.01 µM
EC50 for [Ca2+] (FPR1): > 10 µM

B8: peptide of SEQ ID NO 29 (peptide)
peptide: RWRYRVM
HELM: PEPTIDE1{R.W.R.Y.R.V.[dM].[am]}$$$$V2.0; N-terminus assumed
SMILES: CSCC[C@@H](NC(=O)[C@@H](NC(=O)[C@H](CCCNC(=N)N)NC(=O)[C@H](Cc1ccc(O)cc1)NC(=O)[C@H](CCCNC(=N)N)NC(=O)[C@H](Cc1c[nH]c2ccccc12)NC(=O)[C@@H](N)CCCNC(=N)N)C(C)C)C(N)=O
EC50 for [Ca2+] [1]: < 0.01 µM
EC50 for [Ca2+] (FPR1): > 10 µM
